According to patent US20020037996A1 (INSTITUTE OF PHYSICAL AND CHEMICAL RESEARCH, published 2002):

Biological target: T1, nitrile hydratase (NHase) β subunit derived from Rhodococcus sp. N-771, in the nitrosylated (inactive) enzyme (Rhodococcus sp. N-771, UniProt P13449 1-212)
T1 sequence (looked up): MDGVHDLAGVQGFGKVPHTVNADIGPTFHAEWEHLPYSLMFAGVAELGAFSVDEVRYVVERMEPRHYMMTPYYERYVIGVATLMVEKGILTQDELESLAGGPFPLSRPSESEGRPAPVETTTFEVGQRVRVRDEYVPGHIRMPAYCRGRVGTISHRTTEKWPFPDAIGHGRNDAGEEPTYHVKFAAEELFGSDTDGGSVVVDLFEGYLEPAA
Test: X-ray crystallography of nitrosylated NHase, 1.7 Å; hetero-tetramer (αβ)2 in the crystal, dimer-tetramer equilibrium in solution by sedimentation equilibrium and dynamic light scattering
Text: Two αβ hetero-dimers existed in an asymmetric unit of the crystal. […] The structural model was crystallographically refined at 1.7 Å resolution (R-factor 0.179, R-free0.228). […] The non-heme iron center was located at the interface between the two subunits in the hetero-dimer.

binding result: binds
B1: nitrile hydratase (NHase) α subunit derived from Rhodococcus sp. N-771, in the nitrosylated (inactive) enzyme (enzyme, UniProt P13448 2-207, looked up)
chain: SVTIDHTTENAAPAQAPVSDRAWALFRALDGKGLVPDGYVEGWKKTFEEDFSPRRGAELVARAWTDPEFRQLLLTDGTAAVAQYGYLGPQGEYIVAVEDTPTLKNVIVCSLCSCTAWPILGLPPTWYKSFEYRARVVREPRKVLSEMGTEIASDIEIRVYDTTAETRYMVLPQRPAGTEGWSQEQLQEIVTKDCLIGVAIPQVPTV
modifications: cysteinesulfinic acid (Cys-SO2H) at 112; cysteinesulfenic acid (Cys-SOH) at 114; non-heme iron with bound NO coordinated by Cys109, Cys112, Ser113, Cys114
